Experimental data as given in the supplement of paper PMC9112550, “Optimization of the antimicrobial peptide Bac7 by deep mutational scanning” (BMC Biology, 2022).

System: Escherichia coli TOP10
Experiment: shrunken log2 fold change of peptide-encoding DNA abundance (4.5 h post-induction vs induction); higher = less antimicrobial activity (less host growth inhibition)
Conditions: time post-induction: 4.5 h; library: site-saturation at positions 5, 18, 19, 20
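Further: peptides expressed intracellularly from a pBAD plasmid library in pooled LB shake-flask culture, induced with 0.3% L-arabinose, DNA abundance read by NGS, three biological replicates, DESeq2 with apeglm shrinkage.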

| Sequence | shrunken log2 fold change |
| --- | --- |
| RRIRCRPPRLPRPRPRPLWPPRP | 0.076 |
| RRIRNRPPRLPRPRPRPSRCPRP | 0.283 |
| RRIRVRPPRLPRPRPRPNECPRP | -0.0835 |
| RRIRWRPPRLPRPRPRPQGAPRP | 0.988 |
| RRIRARPPRLPRPRPRPSFSPRP | -0.134 |
| RRIRIRPPRLPRPRPRPPMRPRP | 0.591 |
| RRIRWRPPRLPRPRPRPFFMPRP | -0.108 |
| RRIRCRPPRLPRPRPRPNIFPRP | -0.432 |
| RRIRNRPPRLPRPRPRPKLNPRP | -0.208 |
| RRIRARPPRLPRPRPRPDGAPRP | 0.673 |
| RRIRQRPPRLPRPRPRPSSWPRP | -0.0176 |
| RRIRKRPPRLPRPRPRPRVCPRP | 0.282 |
| RRIRCRPPRLPRPRPRPPGSPRP | 0.379 |
| RRIRFRPPRLPRPRPRPRLWPRP | 0.497 |
| RRIRCRPPRLPRPRPRPNNVPRP | -0.687 |
| RRIRPRPPRLPRPRPRPWCEPRP | -0.0374 |
| RRIRGRPPRLPRPRPRPHRFPRP | 0.101 |
| RRIRERPPRLPRPRPRPTIKPRP | -0.178 |
| RRIRWRPPRLPRPRPRPPSGPRP | 0.127 |
| RRIRIRPPRLPRPRPRPTWWPRP | 0.0347 |
| RRIRTRPPRLPRPRPRPYFTPRP | -1.11 |
| RRIRVRPPRLPRPRPRPPDHPRP | 0.271 |
| RRIRMRPPRLPRPRPRPDVPPRP | 0.323 |
| RRIRFRPPRLPRPRPRPTNCPRP | 0.0341 |
| RRIRGRPPRLPRPRPRPGRPPRP | 0.737 |

| Sequence | shrunken log2 fold change |
| --- | --- |
| RRIRNRPPRLPRPRPRPNRDPRP | -0.0094 |
| RRIRLRPPRLPRPRPRPRWGPRP | 0.175 |
| RRIRWRPPRLPRPRPRPDGVPRP | -0.1 |
| RRIRQRPPRLPRPRPRPWARPRP | -0.0405 |
| RRIRARPPRLPRPRPRPVRDPRP | 0.315 |
| RRIRNRPPRLPRPRPRPKRDPRP | 0.411 |
| RRIRSRPPRLPRPRPRPTVGPRP | 0.187 |
| RRIRCRPPRLPRPRPRPLTRPRP | 0.258 |
| RRIRCRPPRLPRPRPRPIQTPRP | 0.299 |
| RRIRGRPPRLPRPRPRPRLDPRP | 0.692 |
| RRIRNRPPRLPRPRPRPHNVPRP | -0.0343 |
| RRIRIRPPRLPRPRPRPSRSPRP | -0.605 |
| RRIRVRPPRLPRPRPRPYWMPRP | -0.227 |
| RRIRTRPPRLPRPRPRPKLRPRP | -0.0516 |
| RRIRSRPPRLPRPRPRPYVCPRP | -0.414 |
| RRIRPRPPRLPRPRPRPSLNPRP | -0.539 |
| RRIRPRPPRLPRPRPRPCKSPRP | -0.0854 |
| RRIRGRPPRLPRPRPRPTRCPRP | 0.527 |
| RRIRHRPPRLPRPRPRPDNAPRP | -0.34 |
| RRIRYRPPRLPRPRPRPCSAPRP | -0.212 |
| RRIRKRPPRLPRPRPRPGYCPRP | -0.275 |
| RRIRRRPPRLPRPRPRPKATPRP | 0.165 |
| RRIRQRPPRLPRPRPRPTYYPRP | -0.524 |
| RRIRGRPPRLPRPRPRPKTHPRP | 0.947 |
| RRIRYRPPRLPRPRPRPGYWPRP | -0.154 |
